Assay results reported in article PMC3183090, “A Noncoding Point Mutation of Zeb1 Causes Multiple Developmental Malformations and Obesity in Twirler Mice”.

What was measured:
[1] = molecular target: T1, C-Myb (mouse, UniProt P06876 1-636); assay: EMSA; 20 ul reactions with EMSA Accessory Kit (Novagen), 6% DNA retardation gel; buffer composition, salt, pH and temperature not stated; settings: protein: recombinant; tags: pET-41a(+) vector tags (Ni-NTA purified); blunt
[2] = molecular target: T1, C-Myb; assay: competition; unlabeled, 25- or 50-fold molar excess vs labeled N1; complete inhibition; 20 ul reactions with EMSA Accessory Kit (Novagen), 6% DNA retardation gel; buffer composition, salt, pH and temperature not stated; settings: protein: recombinant; tags: pET-41a(+) vector tags (Ni-NTA purified); 5' overhang 1 nt on strand 1 as printed (S6 lacks the 3' C)

T1 sequence (P06876 whole entry): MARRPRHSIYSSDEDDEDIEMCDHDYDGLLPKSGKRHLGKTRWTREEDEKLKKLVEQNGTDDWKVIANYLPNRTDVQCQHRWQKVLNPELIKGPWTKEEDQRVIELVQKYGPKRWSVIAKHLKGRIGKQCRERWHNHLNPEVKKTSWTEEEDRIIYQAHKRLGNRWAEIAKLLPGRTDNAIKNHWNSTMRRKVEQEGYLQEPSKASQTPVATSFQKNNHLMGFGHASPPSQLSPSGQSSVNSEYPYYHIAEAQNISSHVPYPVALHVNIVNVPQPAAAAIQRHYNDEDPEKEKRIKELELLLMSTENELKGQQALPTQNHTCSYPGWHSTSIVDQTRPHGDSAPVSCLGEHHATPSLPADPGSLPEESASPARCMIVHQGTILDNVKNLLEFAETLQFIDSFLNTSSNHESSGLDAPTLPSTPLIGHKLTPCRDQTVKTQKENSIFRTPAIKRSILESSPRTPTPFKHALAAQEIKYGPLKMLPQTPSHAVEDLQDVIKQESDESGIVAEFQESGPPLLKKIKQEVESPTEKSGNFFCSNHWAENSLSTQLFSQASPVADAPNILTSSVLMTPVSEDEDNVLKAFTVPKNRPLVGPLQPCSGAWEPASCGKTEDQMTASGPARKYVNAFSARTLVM

B1: Zeb1 c.58+181G (wild type) probe (dsDNA)
DNA 1: TGCTGGACTGGACCGTTATGTCTTACCTGC
DNA 2: GCAGGTAAGACATAACGGTCCAGTCCAGCA
[1]
  binding result: binds

B2: Zeb1 c.58+181A (Twirler) probe (dsDNA)
DNA 1: TGCTGGACTGGACCATTATGTCTTACCTGC
DNA 2: GCAGGTAAGACATAATGGTCCAGTCCAGCA
[1]
  binding result: no binding

B3: mim-1 C-Myb site control (dsDNA)
DNA 1: GCTCTAAAAAACCGTTATAATGTACAGATATCTT
DNA 2: AAGATATCTGTACATTATAACGGTTTTTTAGAG
[2]
  binding result: binds
